In the test the target is HupA fused to a split luciferase fragment (positive control of the assay). Description: split reporter.

On to “HupA fused to a split luciferase fragment (positive control of the assay) (natural protein)”, for which the increase in luminescence signal after 1 hour of induction is > 2.

The record behind these values is publication doi:10.1101/2021.07.28.454260.
